Laboratory results reported in patent US20050048512A1 (published 2005).
Where “and” joins values, the source holds several entries; their conditions need not be identical. Equal entries are not always repeated.

B1: CD28-A10 (designed binder)
chain: CGPGRFQCESGQCVPATWVCDGDDDCADGSDEKSCATTAPTCESNQFQCGSGQCLPGTWRCDGVNDCADSSDETGCGRPGPGATSAPAACGPGRFQCNNGNCVPQTLGCDGDNDCGDSSDEANCSAPASEPPGSL
notes: LDL receptor A-domain trimer; also called CD28 10; CD28 trimer clone 10

Legend:
[1] = target: T1, CD28 (UniProt P10747 19-152, limits assumed); assay: ELISA, 10 ng CD28 per well, serial dilutions of protein, anti-HA-HRP detection
T1 construct: Purified CD28 immobilized by NHS/EDC coupling (Biacore) or hydrophobic adsorption (ELISA); also called target protein CD28

[2] = target: T1, CD28; assay: Biacore, CD28 on CM5 chip, 0.5 and 5 uM protein in flow
[3] = target: CD28 on monkey PBMC (monkey (cynomolgus), UniProt Q0PDN3 19-220); assay: cell-based or functional assay
[4] = target: CD28 on human PBMC (human, UniProt P10747 19-220); assay: cell-based or functional assay
[5] = target: T2, CD20 on Raji or Daudi cells (UniProt P11836 1-297, limits assumed); assay: phage clone on Raji or Daudi cells with or without 1 mg/mL Rituxan
T2 construct: whole, on cells
T2 sequence (looked up): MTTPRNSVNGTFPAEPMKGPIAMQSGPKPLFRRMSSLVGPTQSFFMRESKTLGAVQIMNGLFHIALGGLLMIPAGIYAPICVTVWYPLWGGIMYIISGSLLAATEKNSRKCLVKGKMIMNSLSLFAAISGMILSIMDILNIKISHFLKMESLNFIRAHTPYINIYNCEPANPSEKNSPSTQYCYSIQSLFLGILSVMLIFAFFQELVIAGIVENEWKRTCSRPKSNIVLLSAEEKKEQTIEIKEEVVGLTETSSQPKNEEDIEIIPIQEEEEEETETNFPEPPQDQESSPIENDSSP

Binder | ELISA (column head; quantity not named) [1] | Kd [2] | IC50, PBMC assay on monkey cells (3H thymidine incorporation) [3] | IC50, PBMC assay on human cells (3H thymidine incorporation) [4] | binding result [5]
B1 | 1.7e-10 | 29 nM | 7 nM | 3 nM and 40 ng/ml | –
CLPERFQCAVPGYCIPLPGVCDGVNDCQEDSDEPNCRAPGLR (designed binder) [CD20 binding sequence 8] | – | – | – | – | binds
CRRNEFRCKSGHCVPQPLVCDGVRDCEDNSDEPSCGRPGPGATSAPAA (designed binder) [CD20 binding sequence 9] | – | – | – | – | binds
